The record followed here is paper PMC10077475, “DG9-conjugated morpholino rescues phenotype in SMA mice by reaching the CNS via a subcutaneous administration” (JCI Insight, 2023).

In one data set the test system is severe SMA mouse model. Kind of data set: Hind limb suspension (HLS) assay (tube test). The format is in vivo. The settings on record: 40 mg/kg s.c. at PD0, PD2–PD12. The text has this:
To evaluate the effects of systemic DG9-PMO treatment on muscle strength and the function of motor neurons, we used several functional tests and compared motor function in the treated and NT mice at various time points. We performed the hind limb suspension (HLS) assay and the righting reflex test during the early weeks of life. […] It should be noted that the results beyond PD12 are biased, as only the healthiest unconjugated PMO–, MOE-, and R6G-PMO–treated mice survived to these time points.
This test was performed on neonatal mice PD2–PD12 as described in Treat NMD protocol SMA_M.2.2.001 ([72]). Briefly, neonatal mice were suspended on their hind limbs from a tube. They were scored based on the position of the hind limbs and their latency to fall was recorded with a 30-second cutoff. Each neonatal pup underwent 3 trials, with a 15-minute break between each trial. The average score was noted by the observer under a blinded test protocol.

The test system of another data set is SMN protein. Kind of data set: SMN protein levels by Western blotting in tissues of severe SMA mice. The format is in vivo, mouse. The procedure:
To evaluate the change of FL-SMN2 expression relative to Δ7 SMN2 transcripts, we used real-time quantitative PCR (RT-qPCR) at PD7; the mice were treated with DG9-PMO at PD0. In both doses, DG9-PMO treatment led to a 4- to 30-fold higher FL-SMN2 expression than NT control in both peripheral and CNS tissues (Figure 2A and Supplemental Figure 3A). It also led to a ~5-fold increase in FL-SMN2 expression when compared with unconjugated PMO, MOE, and R6G-PMO treatments in the majority of the tissues (Figure 2A, Supplemental Figure 3A, and Supplemental Figure 1F). […] SMN levels were higher in CNS tissues in the DG9-PMO–treated than MOE-treated mice, though no statistical significance was seen. […] SMN levels were similar in DG9-PMO and MOE in the tissues collected from mice at PD30.
Total protein was extracted from frozen tissues harvested at PD7 or PD30 by using RIPA buffer (MilliporeSigma) with cOmplete, Mini, EDTA-free protease inhibitor cocktail (MilliporeSigma). The protein concentration was quantified using the Pierce BCA Protein Assay Kit (Thermo Fisher Scientific). […] The bands were detected using the Amersham ECL Select Western Blotting Detection Kit (GE Healthcare) and visualized by the ChemiDoc Touch Imaging system (Bio-Rad). […]
(In western blotting, separated proteins are transferred to a membrane and probed.)

Data set [1] is described as follows: Hybridization-based ELISA, PMO concentration in tissues of severe SMA mice. Format: in vivo. The settings on record: mouse, sc, 40 mg/kg s.c. at PD0, PD7 mice. On the procedure: To determine the effects of DG9 peptide in increasing PMO uptake, we evaluated the biodistribution of unconjugated PMO and DG9-PMO in the peripheral and CNS tissues. We used a well-established hybridization-based ELISA designed specifically to detect the PMO to compare the concentration of DG9-PMO and unconjugated PMO in the tissues of treated PD7 mice ([51]).
ELISA was performed as described previously ([51], [69]). In brief, protein was extracted from frozen tissue sections (~20 μm) using RIPA buffer with cOmplete, Mini, EDTA-free protease inhibitor cocktail. The probes (Integrated DNA Technologies) were designed complementary to the PMO sequence with phosphorothioated backbones at the 5′ and 3′ ends. The 5′ and 3′ ends were labeled with digoxigenin and biotin, respectively. The tissue lysates (0.02 mg/mL protein concentration) were pretreated with 2.5 mg/mL trypsin containing 10 mM CaCl2 at 37°C overnight to digest the DG9 peptide. The probes were added to the samples and allowed to hybridize at 37°C for 30 minutes. Following the probe-PMO hybridization, the hybridized mixtures were added to Pierce NeutrAvidin Coated 96-Well Plates, Black (Thermo Fisher Scientific), to allow avidin-biotin interaction between the plate and the probes. The unhybridized probes were digested using micrococcal nuclease enzyme at 0.1 gel unit/μL (New England Biolabs). This was followed by the addition of an anti-digoxigenin antibody conjugated with ALP 1:5,000 (11093274910, Roche Applied Sciences). Attophos AP Fluorescent Substrate (Promega) was added to the PMO/DG9-PMO probes, and fluorescence was detected at 444 nm excitation and 555 nm emission by using a monochromator SpectraMax M3 plate reader (Molecular Devices).

Read-outs that look alike come from different tables or passages of the source.

Regarding `CC(=O)N[C@@H](Cc1ccc(O)cc1)C(=O)N[C@@H](C)C(=O)N[C@H](CCCNC(=N)N)C(=O)N[C@H](C(=O)N[C@@H](CCCNC(=N)N)C(=O)N[C@@H](CCCNC(=N)N)C(=O)N[C@H](CCCNC(=N)N)C(=O)NCC(=O)N1CCC[C@H]1C(=O)N[C@@H](CCCNC(=N)N)C(=O)NCC(=O)N[C@@H](Cc1ccc(O)cc1)C(=O)N[C@@H](C)C(=O)N[C@H](CCCNC(=N)N)C(=O)N[C@H](C(=O)N[C@@H](CCCNC(=N)N)C(=O)N[C@@H](CCCNC(=N)N)C(=O)N[C@H](CCCNC(=N)N)C(=O)NCC(=O)N1CCC[C@H]1C(=O)N[C@@H](CCCNC(=N)N)C(=O)N[C@H](CCCNC(=N)N)C(=O)N1C[C@@H](COP(=O)(N(C)C)N2C[C@@H](COP(=O)(N(C)C)N3C[C@@H](COP(=O)(N(C)C)N4C[C@@H](COP(=O)(N(C)C)N5C[C@@H](COP(=O)(N(C)C)N6C[C@@H](COP(=O)(N(C)C)N7C[C@@H](COP(=O)(N(C)C)N8C[C@@H](COP(=O)(N(C)C)N9C[C@@H](COP(=O)(N(C)C)N%10C[C@@H](COP(=O)(N(C)C)N%11C[C@@H](COP(=O)(N(C)C)N%12C[C@@H](COP(=O)(N(C)C)N%13C[C@@H](COP(=O)(N(C)C)N%14C[C@@H](COP(=O)(N(C)C)N%15C[C@@H](COP(=O)(N(C)C)N%16C[C@@H](COP(=O)(N(C)C)N%17C[C@@H](COP(=O)(N(C)C)N%18C[C@@H](COP(=O)(N(C)C)N%19CCC(C(N)=O)CC%19)O[C@@H](n%19cc(C)c(=O)[nH]c%19=O)C%18)O[C@@H](n%18ccc(N)nc%18=O)C%17)O[C@@H](n%17cnc%18c(N)ncnc%18%17)C%16)O[C@@H](n%16ccc(N)nc%16=O)C%15)O[C@@H](n%15cc(C)c(=O)[nH]c%15=O)C%14)O[C@@H](n%14cc(C)c(=O)[nH]c%14=O)C%13)O[C@@H](n%13cc(C)c(=O)[nH]c%13=O)C%12)O[C@@H](n%12ccc(N)nc%12=O)C%11)O[C@@H](n%11cnc%12c(N)ncnc%12%11)C%10)O[C@@H](n%10cc(C)c(=O)[nH]c%10=O)C9)O[C@@H](n9cnc%10c(N)ncnc%109)C8)O[C@@H](n8cnc9c(N)ncnc98)C7)O[C@@H](n7cc(C)c(=O)[nH]c7=O)C6)O[C@@H](n6cnc7c(=O)[nH]c(N)nc76)C5)O[C@@H](n5ccc(N)nc5=O)C4)O[C@@H](n4cc(C)c(=O)[nH]c4=O)C3)O[C@@H](n3cnc4c(=O)[nH]c(N)nc43)C2)O[C@@H](n2cnc3c(=O)[nH]c(N)nc32)C1)C(C)C)C(C)C` (stereo partly drawn) [DG9-PMO], in the data set with severe SMA mouse model, the “hind limb strength (HLS score)” value is on record as “hind limb strength comparable to the Hets at PD12”. For the same molecule, the “SMN expression at PD30 (Western blotting)” value in the data set with SMN protein (40 mg/kg s.c. at PD0, tissues at PD30) is recorded as “sustained levels of SMN expression at PD30”. In addition, the “SMN protein levels (Western blotting)” value in the data set with SMN protein (s.c. at PD0, tissues at PD7, relative to β-tubulin) was “increased SMN protein levels in both the peripheral and CNS tissues”. The level at time molar at 7 days after dosing (PD7) in data set [1] (brain, n = 5, read-out: average AO detection, brain) worked out at 8.36 nM; in data set [1] (heart, n = 4, read-out: average AO detection, heart), 8.89 nM; in data set [1] (kidney, n = 6, read-out: average AO detection, kidney), 20000 nM; in data set [1] (liver, n = 5, read-out: average AO detection, liver) it was 200000 nM; in data set [1] (quadriceps muscle, n = 5, read-out: average AO detection, quadriceps muscle) it was 12.2 nM; in data set [1] (spinal cord, n = 4, read-out: average AO detection, spinal cord), 13.9 nM.
